This note sets out measurements from the nanobody polyreactivity screen of Harvey et al. (2022).

The series is described as follows: yeast display, Sf9 membrane polyspecificity reagent, FACS + sequencing; frameworks hold sequencing errors. In a few lines:
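Nanobodies from a synthetic yeast display library (Saccharomyces cerevisiae BJ5465), induced 36–48 hours with galactose, were stained 1 hour at 4 °C with 10% biotinylated, detergent-solubilized Sf9 membrane reagent, enriched on streptavidin microbeads, then FACS-sorted. Anti-HA (expression) and streptavidin (reagent binding) fluorescence set low and high (top ~1%) gates. Polyreactivity labels come from the gate of origin. Genes were colony-PCR amplified, MiSeq 2 × 250 sequenced and filtered by CDR length.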
Consider “QVQLVESGGGLVQEGGSLRLSCAASGRIFPYYAMGWYRQAPGKERELVAAITSGSRTYYADSVKGRFTISRDNAKNTVYLQMNSLKPEHTAVYYCNAVGGNSAYVYWGQGTQVTVSS”, for which the “polyreactivity (PSR sort gate)” value is listed as “high polyreactivity”. Consider “QVQLVESGGGLVQAGGSLRLSCAASGFTFILYAMGWYRQAPGKERELVAAITTSGGRTYYADSVKGRFTISRDTAKNTVYLQMNSLKPEDTAVYYCNARTTPKERDYWGQGTQVTVSS”, for which the “polyreactivity (PSR sort gate)” value is listed as “high polyreactivity”. With “QVPLVESGGGLVQAGGSLRLSCAASGRNYFKYAMGWYRQAPGKERELVATITWRGSSTYYSDSVKGRFTISRDNAKNTVFLQMNSLKPEDTAVYYCAARYLYTDEYWDKFYYWGQGTQVTVSS”, the “polyreactivity (PSR sort gate)” value was “high polyreactivity”. The entry for “QVQLVESGGGIVQAGGSLRLSCAASGSTLVKYAMGWYRQAPGKERELVAAISWSGGRTYYADSVKGRFTISRDNAKNTVYLQMNSLKPEDTAVYYCAARRKAVRYDYWGQGTQVTVSS” is “high polyreactivity”; for “QVQLVESGGGLVQAGGSLRLSCAASGIIFDTNAMGWYRQAPGKERELVATITQRGGTTYYADSVKGRFTISRDNAKNTVYLQMNSLKPEDTAVYYCNAGPVRLPYDSWGQGTQVTVSS” it is “low polyreactivity”; for “QDQLVESGGGIVQAGGSLRLSCAASGFTFLYSAMGWYRQAPGKERELVAAINRSGGRTYYADSVKGRFTISRDNAKNTVYLQMNSLKPEDTAVYYCATDTYFRSSVVFRYDYWGQGTQVTVSS” it is “high polyreactivity”. With “QVQLVESGGGLFQAGGSLRLSCAASGNIFAYNAMGWYRQAPGKERELVASIRYSGGSTYYADSVKGRFTISRDNAKNTVYLQINSLKPEDTAVYYCAKRGYSSYRTYNYWGQGTQVTVSS” the entry was “high polyreactivity”; with “QVQLVESAGGLVQAGASLRLSCAASGFIFRYNTKGWYRQAPGKEMELVATINRSGGSTYYADSVKGRFTISRDNAKNTVYLQMNSLKPVDTAVYYCAAVSLQPYYNAGATWDGDYWGQGTQVTVSS”, “high polyreactivity”. The entry for “QVQLVESGGGLVQAGGSLRLSCAASGSTINQYPMGWYRQAPGKERDLVAAITRRGGSTYYADSVKGRCTISSDNAKNTVYLQLNSLKPEDTAVYYCAAAYPYTTVSYDYWGQGTQVTVSS” is “high polyreactivity”; for “QVQLVESGGVLVQGGGSLRLSCAASGSIFPFYALGWYRQAPGKERELVATNSWSGGRTYYADSVKGRFTKSRDNAKTNVYLQINILIPEDTAVYYCAAGSYHYPNAYYYWGQGTQLTVSS” it is “high polyreactivity”. “QVQLVESGGGLIQAGGSLRLSCAASGIIFYPYTMGWYRQAPGKERELVAAIRQSGTSTYYADSVKGRFTISRDNAKNTVYLQMNSLKPEDTAVYYCNADDHIYWRKGYDYWGQGTQVTVSS”: the “polyreactivity (PSR sort gate)” value is recorded as “low polyreactivity”. The entry for “QVQLVESGGGLVQAGGSLRLSCAASGSTFVQYAMGWYRQAPGKERELVAAITRSGGSTYYADSVKGRFTISRDNAKNTVYLQMNSLKPEDTAVYYCAADFSSSYRAFNYWGQGTQLTVSS” is “high polyreactivity”. With “QVQLVESGGGLVQAGGSLRLSCAASGSTFQFNVMGWYRQAPGKERELVAAITSGASTYYADSVKGRFTISRDNAKNTVYLQMNSLEPVDTAVYYWAVDYSFRYDYVQRYYYWGQGTQVTVSS” the entry was “high polyreactivity”. Consider “QVQLVESGGGLVQAGGSLRLTCAASGFIFRYYAMGWYRPATGKEMELVAAISRGGSTNYADSVKGRFTISRDNAKYTVYLQMNSLKPEDTAVYYCASRKGRSKQGYYYWGQGTQVTVSS”, for which the “polyreactivity (PSR sort gate)” value is recorded as “high polyreactivity”. The entry for “QVQLVESGGGLVQAGGSLRLSCAASGFILYFNAMGWYRQAPGKERELVAAITTDGGSTYYADSVKGRFTISRDNAKNTVYLQMNSLKPEDTAVYYCAADASTWYTEEYWGQGTQVTVSS” is “low polyreactivity”; for “QVQLVESGGGLVQAGGSLRLSCAASGRISFRYAMGWYRQAPGKERELVAAINRGGITNYADSVKGRFTISRDNAKNTVYLQMNSLKPEDTAVYYCAARYASPRYKSKIAYWGQGTQVSVSS” it is “high polyreactivity”; for “QVQLVESGGGLVEAGGSLRLSCAASGRIFVHNAMGWYRHAPGKERELVAVITYSGGRTYYADSVKGRFTISRDNAKNTVYLQMNSLKPEDTAVYYCAVRAYKVSRYYYWGQGTLVTVSS” it is “low polyreactivity”.

In the case of “QVQLVESGVGLVQAGGSLRLTCAASGITFLYNAMGSYRQAPGKERELVAVITRGGITNYADSVKGRFTISRDNAKNTDSLQMYRLNPEDTAVYDWAAYRGIYSRYDYWGQGTQVNVSS”, the “polyreactivity (PSR sort gate)” value is “high polyreactivity”. With “QVQLVESGGGLVQAGGSLRLSCAASGRIFDVYAMGWYRQAPGKERELVASISWSDGSTYYADSVKGRFTLSRDNAKNTVYLQMNSLKPEDTAVYYCNALTELGGRWDDYWGQGTQVTVSS” the entry was “low polyreactivity”; with “QVQLVESGGGIVQAGGSLRLSCTASGFTFTYYAMGSYRQAPGKERELVAAISWSGGSTYYADSVKGRFTISRDNAKNTVYLQMNSLKPEDTAVYYCNKVGRAIGPYDYWGQGTQVTVSS”, “high polyreactivity”. On to “QVQLQESGGGLVQAGGSLRPRCAPAGTIFLSVNMGWYRHAPGEEREFVASITQGATTNYADSLIGRFTISRDNAKNTVYLQMNCQKPEDTAVYYCAAYPRFYGGKYGEYGYWGQGTQVTVSS”, for which the “polyreactivity (PSR sort gate)” value is “high polyreactivity”.

Turning to “QVQLVESGGGLVQAGGSLRLSCAASGRTFAKYAMGLYRQAPGKERELVAAITRGDTTNYADSVKGRFTISRDNAKNTVYLQMNSLKPEDTAVYYCAATPDPPHTYEYWGQGTQVTVSS”, the “polyreactivity (PSR sort gate)” value was “low polyreactivity”. Take “QVQLVESGGGLVQAGGSLRLSCAASGFTFSNYAMGWYRQAPGKERELVAAISKRGGSTYYADSVKGRFTISRDNAKNTVYLQRNSLKPEDTAVYYCAAYGGYIRRSVPVWGYYYWGQGTQVTVSS”: the “polyreactivity (PSR sort gate)” value is reported as “high polyreactivity”. For the sequence “QVQLVESGGGLVQAGGSLRLSCAASGSTFGPYAMGWYRQAPGKERELVAAITKSGGRTYYADSVKGRFTISRDNAKNTVYLQMNSLKPEDTAVYYCAAYGSVGLEYWGQGTQVTVSS”, the “polyreactivity (PSR sort gate)” value is on record as “high polyreactivity”. The entry for “QVQLVESGGGLVQAGGSLRLSCAASGYTFGVYVMGWYREAPGKERELVAAISGSTYYADSVKGRFTISRDNAKNTVYVQMNSLKPEDTAVYYCAAESYFFSPRTREKFDYWGQGTQVTVSS” is “low polyreactivity”; for “QVQLVESGGGLVQAGGSLRLSCAASGSISVWYVMGWYRPAPGTERELVAAITRSGGSTFYADSVKGRFTISRDNAKNTVYLQMNSLKPEDTAVYYCAADGGVAWGYGYWGQGTQVTVSS” it is “low polyreactivity”. On to “QVQLVESGGGLVQAGGSLRLSCAASGSTFQFYAMGWYRQAPGKERELVAAIDGSDGDTYYADSVKGRFTISRDNAKNTVYLQMNSLKPEDTAVYYCNADRDALVGYDYDYWGQGTQVTVSS”, for which the “polyreactivity (PSR sort gate)” value was “low polyreactivity”. The entry for “QVQLVESVGGLVQAGGSLRLSCAASGSIFSYYAMGWYRQAPGKERELVAAITSSGDSTYYADSVKGRFTISRDNAKNTVYLQINSLKPEDTAVYYCAAGILDLKLYFSSYDYWGQGTQVTVSS” is “low polyreactivity”; for “QVQLVESGGGLVQAGGRLRLSCAASGRTFYINTMGWYRQAPGKERELVAAISSSGDSTYYADSVKGRFTISRDNAKNTVYLQMNSLKPEDTAVYYCATDYGWYDYWGQGTQVTVSS” it is “low polyreactivity”. As to “QVQHVESGGGLVQAGGSLRLSCAPSGITFYTYTMGWYRQAHGKERQLVAVISASGARTYYADSVKGRFTISRDNAKNTVYLQMNSLKPEDTAVYYCAARSYFISPWRFDYWGQGTQVTVSS”, the “polyreactivity (PSR sort gate)” value is “high polyreactivity”. For “QVQLVESGGGLVQAGGSLRLSCAASGRTFKKNAMGWYRQAPGKERELVAAITGSGGSTYYADSVKGRFTISRDNAKKTVYLQMNSLKPEDTAVYYCAAYAYGVWHSQDCGNYWGQGTQVTVSS”, the “polyreactivity (PSR sort gate)” value is listed as “low polyreactivity”. Consider “QVQLVESGGGLVQAGGSLRLSCAASGLILYWYAMGWYRQAPGKERELVAAISISGGSTYYADSVKGRFTISRDNAKNTVYLQMNSLKPDDTAVYYSAAVYFYSWEGDGDYWGLGTQVTVSS”, for which the “polyreactivity (PSR sort gate)” value is recorded as “low polyreactivity”. The entry for “QVQLVESGGGLVQAGGSLRLSCAASGFIFVSNAMGWYRQAPGKERELVATITNGDRTYYADSVKGRFTISRDNAKNTVYLQMNSLKPEDTGVYYCNADDQVGSIWKWYGKYEYRGQGTQVTVSS” is “low polyreactivity”; for “QVQLVESGGGLVQAGGSLRLSCAASGRIFTTYVMGWYRQAPGKERELVAAISARGSTYYADSVKGRFTISRDNAKNTVYLQMNSLKPEDTAVYYCAAGHRLPVYYGYPRATYNYWGQGTQVTVSS” it is “low polyreactivity”; for “QVQLVESGGGLVQAGGSLRLSCAASGRIFAFYAMGWYRQAPGKERQLVAVISKSGGTTYYADSVKGRFTISRDNAKNTVYLQMNSLKPEDTAVYYCNKRVFYRHGYSYNYWGQGTQVTVSS” it is “high polyreactivity”. As for “QVQLVESVGGLVQAGGSLRLSCAASGFTFDYYSMGWYRQATGKERELVAAITTAGSTNYADSVKGRFTISRDNAKNTVSLQINSLKPEDTAVYYCAAYWWPWDISWDDYWGQGTQVNVSS”, the “polyreactivity (PSR sort gate)” value was “high polyreactivity”. Turning to “QVQLVESGGGLVQAGGSLRLSCAASGFTFRTNAMGWYRQAPGKEREFVATITRRGGSTYYADSVKGRFTISRDNAKKTVYLQLNSLKPEDTAVYYCNAVFSSQEYEYWGQGTQVTVSS”, the “polyreactivity (PSR sort gate)” value is listed as “high polyreactivity”. For “QVQLVESGGGLDQAGGSLRLICAASGRTFATNTMVWYRQAPGKERELVAAITFSGGSTYYADSVKGRFTISRDNEKNSVYLQMNSLKPEETAVYYCNVRSPYYSYRYRYGYWGQGTQVTVSS”, the “polyreactivity (PSR sort gate)” value was “high polyreactivity”. On to “QVQLVESGGGLVQAGGSLRLSCAASGFIFSYYALGWYRQATGKERELVAAITYSGVRTYYADSVKGRFTISRDNAKNTVYLQMNSLKPVDTAVYYCNTKHRTKPTRPDDYWGQGTQVTVSS”, for which the “polyreactivity (PSR sort gate)” value is reported as “high polyreactivity”. As to “QVHLVESGGGLVQAGGSLRLSCAASGSIFRYNVKAWYRQAPGNERQFVAANTARGGSTYYPESVKVRFTISRDYAKNTVYRQMISMKPEDTAVYYCATVSQQSRSLGIDRIYYWGQGTQVTVSS”, the “polyreactivity (PSR sort gate)” value is listed as “high polyreactivity”.

On to “QVQLVESGGGLVQAGGSLRLSCAASGSISSVNVMGWYRQAPGKERELVAAISSGTSTHYADSVKGRFTISRDNAKNTVYLQMNSLKPEVTAVYYCNKTSFLVKLDYWGQGTQVTVSS”, for which the “polyreactivity (PSR sort gate)” value is “low polyreactivity”.
